Results reported in PMC9482650, “Quantitative fragmentomics allow affinity mapping of interactomes” (Nature Communications, 2022).

T1: APBA3_1, O96018
T1 sequence (O96018 389-490, limits assumed, looked up): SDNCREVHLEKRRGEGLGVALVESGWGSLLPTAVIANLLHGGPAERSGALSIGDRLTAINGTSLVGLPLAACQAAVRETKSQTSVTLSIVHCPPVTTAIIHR

T2: LNX2_3, Q8N448
T2 sequence (Q8N448 463-564, limits assumed, looked up): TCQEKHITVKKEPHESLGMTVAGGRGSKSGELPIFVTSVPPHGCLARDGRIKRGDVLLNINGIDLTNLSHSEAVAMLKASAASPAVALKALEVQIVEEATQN

T3: SHANK1, Q9Y566
T3 sequence (Q9Y566 658-767, limits assumed, looked up): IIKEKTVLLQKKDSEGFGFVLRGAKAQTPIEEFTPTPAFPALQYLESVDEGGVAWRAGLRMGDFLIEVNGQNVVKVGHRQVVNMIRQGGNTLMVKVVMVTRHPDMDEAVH

T4: SIPA1L2, Q9P2F8
T4 sequence (Q9P2F8 945-1036, limits assumed, looked up): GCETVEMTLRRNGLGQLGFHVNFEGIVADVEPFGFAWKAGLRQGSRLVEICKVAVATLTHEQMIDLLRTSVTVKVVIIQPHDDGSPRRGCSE

T5: LRRC7, Q96NW7
T5 sequence (Q96NW7 1440-1537, limits assumed, looked up): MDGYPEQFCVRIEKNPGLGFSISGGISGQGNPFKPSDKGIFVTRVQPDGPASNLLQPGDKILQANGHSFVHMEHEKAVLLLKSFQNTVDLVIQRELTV

T6: NHERF3_4, Q5T2W1
T6 sequence (Q5T2W1 373-468, limits assumed, looked up): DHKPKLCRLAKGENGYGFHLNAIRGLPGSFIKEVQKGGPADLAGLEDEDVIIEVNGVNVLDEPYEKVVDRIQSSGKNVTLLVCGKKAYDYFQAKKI

T7: DLG3_3, Q92796
T7 sequence (Q92796 374-475, limits assumed, looked up): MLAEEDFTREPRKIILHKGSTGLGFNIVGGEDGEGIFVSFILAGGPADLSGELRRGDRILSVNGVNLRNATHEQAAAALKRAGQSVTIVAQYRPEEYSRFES

T8: PDZRN3_1, Q9UPQ7
T8 sequence (Q9UPQ7 244-349, limits assumed, looked up): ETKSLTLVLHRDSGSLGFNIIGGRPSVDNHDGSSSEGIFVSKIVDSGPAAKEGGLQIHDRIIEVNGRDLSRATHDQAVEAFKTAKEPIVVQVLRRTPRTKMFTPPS

T9: PDZD2_2, O15018
T9 sequence (O15018 329-429, limits assumed, looked up): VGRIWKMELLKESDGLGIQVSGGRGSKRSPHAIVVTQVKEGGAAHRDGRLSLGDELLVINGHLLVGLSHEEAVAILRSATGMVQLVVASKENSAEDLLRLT

B1: CTBP1, Q13363 (peptide)
chain: ADRDHASDQL
B2: RRBP1, Q9P2E9 (peptide)
chain: GSSSKEGTSV

What was measured:
Assay in all cases: holdup assay
Set-up in all cases: key: below the threshold = too weak to quantify, mostly under pKd 3.1 to 4
Conditions in all cases: plain residues with an end cap or a label only (N-terminal biotin on a linker: ado-ado)
GIPC2, Q8TF65 = target: GIPC2, Q8TF65
GIPC2, Q8TF65, sequence (Q8TF65 112-203): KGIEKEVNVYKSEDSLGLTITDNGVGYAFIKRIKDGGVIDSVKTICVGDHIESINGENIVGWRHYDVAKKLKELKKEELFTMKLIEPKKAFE

LIMK2, P53671 = target: LIMK2, P53671
LIMK2, P53671, sequence (P53671 143-248): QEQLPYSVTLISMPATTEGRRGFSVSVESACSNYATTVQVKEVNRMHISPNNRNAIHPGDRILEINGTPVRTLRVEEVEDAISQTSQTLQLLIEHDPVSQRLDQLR

APBA3_1, O96018 = target: T1, APBA3_1, O96018
FRMPD2_3, Q68DX3 = target: FRMPD2_3, Q68DX3
FRMPD2_3, Q68DX3, sequence (Q68DX3 1073-1166): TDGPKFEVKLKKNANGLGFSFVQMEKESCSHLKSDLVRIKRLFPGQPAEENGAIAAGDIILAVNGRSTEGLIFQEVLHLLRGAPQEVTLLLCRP

LNX2_3, Q8N448 = target: T2, LNX2_3, Q8N448
SNX27, Q96L92 = target: SNX27, Q96L92
SHANK1, Q9Y566 = target: T3, SHANK1, Q9Y566
DLG5_1, Q8TDM6 = target: DLG5_1, Q8TDM6
DLG5_1, Q8TDM6, sequence (Q8TDM6 617-713): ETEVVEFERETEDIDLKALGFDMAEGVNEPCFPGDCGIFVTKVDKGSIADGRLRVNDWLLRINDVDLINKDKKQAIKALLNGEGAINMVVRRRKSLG

SIPA1L2, Q9P2F8 = target: T4, SIPA1L2, Q9P2F8
NHERF4_4, Q86UT5 = target: NHERF4_4, Q86UT5
NHERF4_4, Q86UT5, sequence (Q86UT5 464-550): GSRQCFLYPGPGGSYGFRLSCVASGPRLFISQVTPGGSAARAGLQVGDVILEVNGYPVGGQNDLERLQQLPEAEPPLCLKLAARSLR

LRRC7, Q96NW7 = target: T5, LRRC7, Q96NW7
Inadl_9, Q8NI35 = target: Inadl_9, Q8NI35
Inadl_9, Q8NI35, sequence (Q8NI35 1530-1615): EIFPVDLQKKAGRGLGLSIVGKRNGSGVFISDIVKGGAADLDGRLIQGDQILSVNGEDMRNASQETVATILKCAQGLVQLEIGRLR

GRID2IP_2, A4D2P6 = target: GRID2IP_2, A4D2P6
GRID2IP_2, A4D2P6, sequence (A4D2P6 272-370): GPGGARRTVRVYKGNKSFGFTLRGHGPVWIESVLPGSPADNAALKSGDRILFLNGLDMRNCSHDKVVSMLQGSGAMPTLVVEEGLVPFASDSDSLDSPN

NHERF3_4, Q5T2W1 = target: T6, NHERF3_4, Q5T2W1
Inadl_4, Q8NI35 = target: Inadl_4, Q8NI35
Inadl_4, Q8NI35, sequence (Q8NI35 547-651): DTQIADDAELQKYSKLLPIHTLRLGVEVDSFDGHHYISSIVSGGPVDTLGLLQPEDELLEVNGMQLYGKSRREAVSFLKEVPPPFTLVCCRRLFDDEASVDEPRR

NOS1, P29475 = target: NOS1, P29475
NOS1, P29475, sequence (P29475 9-101): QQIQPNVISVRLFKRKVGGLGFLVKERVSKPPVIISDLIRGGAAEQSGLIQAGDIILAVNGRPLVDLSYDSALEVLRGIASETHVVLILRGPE

AHNAK1, Q09666 = target: AHNAK1, Q09666
AHNAK1, Q09666, sequence (Q09666 4-100): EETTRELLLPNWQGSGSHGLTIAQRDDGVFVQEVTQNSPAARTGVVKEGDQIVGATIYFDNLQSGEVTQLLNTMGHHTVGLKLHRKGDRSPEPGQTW

DLG3_3, Q92796 = target: T7, DLG3_3, Q92796
MAGI1_2, Q96QZ7 = target: MAGI1_2, Q96QZ7
MAGI1_2, Q96QZ7, sequence (Q96QZ7 456-580): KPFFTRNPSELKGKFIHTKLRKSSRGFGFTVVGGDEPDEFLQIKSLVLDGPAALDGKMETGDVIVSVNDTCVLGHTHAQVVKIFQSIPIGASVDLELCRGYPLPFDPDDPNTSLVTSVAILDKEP

IL16_3, Q14005 = target: IL16_3, Q14005
IL16_3, Q14005, sequence (Q14005 1107-1207): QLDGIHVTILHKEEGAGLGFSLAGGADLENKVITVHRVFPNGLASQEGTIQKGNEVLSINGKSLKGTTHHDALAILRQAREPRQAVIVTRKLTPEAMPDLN

GORASP1, Q9BQQ3 = target: GORASP1, Q9BQQ3
GORASP1, Q9BQQ3, sequence (Q9BQQ3 1-208): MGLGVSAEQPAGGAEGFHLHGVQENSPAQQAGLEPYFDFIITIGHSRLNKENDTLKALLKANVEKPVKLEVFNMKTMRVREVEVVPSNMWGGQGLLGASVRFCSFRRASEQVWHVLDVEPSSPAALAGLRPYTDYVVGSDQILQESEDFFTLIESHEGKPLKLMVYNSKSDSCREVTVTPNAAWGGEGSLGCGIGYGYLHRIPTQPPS

Inadl_1, Q8NI35 = target: Inadl_1, Q8NI35
Inadl_1, Q8NI35, sequence (Q8NI35 113-229): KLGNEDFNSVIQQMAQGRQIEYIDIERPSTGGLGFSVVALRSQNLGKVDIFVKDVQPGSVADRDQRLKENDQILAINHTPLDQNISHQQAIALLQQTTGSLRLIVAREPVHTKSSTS

LNX1_3, Q8TBB1 = target: LNX1_3, Q8TBB1
LNX1_3, Q8TBB1, sequence (Q8TBB1 500-596): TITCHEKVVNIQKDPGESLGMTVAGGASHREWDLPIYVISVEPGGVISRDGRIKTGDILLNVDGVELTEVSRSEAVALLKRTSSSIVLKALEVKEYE

TJP1_3, Q07157 = target: TJP1_3, Q07157
TJP1_3, Q07157, sequence (Q07157 416-512): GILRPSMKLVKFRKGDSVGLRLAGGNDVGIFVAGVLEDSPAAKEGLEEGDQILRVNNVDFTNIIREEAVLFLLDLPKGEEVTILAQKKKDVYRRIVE

PDZRN3_1, Q9UPQ7 = target: T8, PDZRN3_1, Q9UPQ7
FRMPD4, Q14CM0 = target: FRMPD4, Q14CM0
FRMPD4, Q14CM0, sequence (Q14CM0 67-160): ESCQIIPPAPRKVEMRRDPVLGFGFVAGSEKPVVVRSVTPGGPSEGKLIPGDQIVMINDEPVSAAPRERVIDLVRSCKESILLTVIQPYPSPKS

PDZD2_2, O15018 = target: T9, PDZD2_2, O15018
DLG4_3, P78352 = target: DLG4_3, P78352
DLG4_3, P78352, sequence (P78352 306-403): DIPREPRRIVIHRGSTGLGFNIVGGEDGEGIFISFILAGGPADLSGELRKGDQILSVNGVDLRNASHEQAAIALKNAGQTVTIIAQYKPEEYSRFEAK

Inadl_5, Q8NI35 = target: Inadl_5, Q8NI35
Inadl_5, Q8NI35, sequence (Q8NI35 673-780): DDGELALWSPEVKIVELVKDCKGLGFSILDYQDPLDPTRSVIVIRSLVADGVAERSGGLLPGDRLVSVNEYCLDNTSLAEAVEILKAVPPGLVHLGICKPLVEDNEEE

Row | pKd (GIPC2, Q8TF65) | pKd (LIMK2, P53671) | pKd (APBA3_1, O96018) | pKd (FRMPD2_3, Q68DX3) | pKd (LNX2_3, Q8N448) | pKd (SNX27, Q96L92) | pKd (SHANK1, Q9Y566) | pKd (DLG5_1, Q8TDM6) | pKd (SIPA1L2, Q9P2F8) | pKd (NHERF4_4, Q86UT5) | pKd (LRRC7, Q96NW7) | pKd (Inadl_9, Q8NI35) | pKd (GRID2IP_2, A4D2P6) | pKd (NHERF3_4, Q5T2W1) | pKd (Inadl_4, Q8NI35) | pKd (NOS1, P29475) | pKd (AHNAK1, Q09666) | pKd (DLG3_3, Q92796) | pKd (MAGI1_2, Q96QZ7) | pKd (IL16_3, Q14005) | also measured | Binder
1 | below the threshold | below the threshold | below the threshold | below the threshold | below the threshold | below the threshold | below the threshold | below the threshold | below the threshold | below the threshold | below the threshold | below the threshold | below the threshold | below the threshold | below the threshold | below the threshold | below the threshold | below the threshold | below the threshold | below the threshold | pKd (GORASP1, Q9BQQ3): below the threshold; pKd (Inadl_1, Q8NI35): below the threshold; pKd (LNX1_3, Q8TBB1): below the threshold; pKd (TJP1_3, Q07157): below the threshold; pKd (PDZRN3_1, Q9UPQ7): below the threshold; pKd (FRMPD4, Q14CM0): 3.93; pKd (PDZD2_2, O15018): below the threshold; pKd (DLG4_3, P78352): below the threshold; pKd (Inadl_5, Q8NI35): below the threshold | B1
2 | below the threshold | below the threshold | below the threshold | below the threshold | below the threshold | 4.1 | below the threshold | below the threshold | below the threshold | 3.98 | below the threshold | 3.57 | 3.76 | below the threshold | below the threshold | 3.72 | below the threshold | 3.71 | 3.87 | below the threshold | pKd (GORASP1, Q9BQQ3): below the threshold; pKd (Inadl_1, Q8NI35): below the threshold; pKd (LNX1_3, Q8TBB1): below the threshold; pKd (TJP1_3, Q07157): below the threshold; pKd (PDZRN3_1, Q9UPQ7): 4.33; pKd (FRMPD4, Q14CM0): 3.71; pKd (PDZD2_2, O15018): 4.82; pKd (DLG4_3, P78352): 3.64; pKd (Inadl_5, Q8NI35): below the threshold | B2
